How the values were obtained:
p1-encoded leu2* = assay: p1 leu2* fluctuation tests in AR-Y304 (p1 mutation rate reporter strain, mutual orthogonality); assay type: cell-based, S. cerevisiae
Excerpt: Strains for testing mutual orthogonality were generated by transforming a panel of CEN6/ARS4 vectors encoding TP-DNAP1 or TP-DNAP2 variants into two base strains, AR-Y304 and GA-Y021. AR-Y304 (Ravikumar et al., 2014, Nature Chemical Biology, 10:175-177) contains recombinant p1 encoding mKate2, URA3 and leu2* without disturbing the native TP-DNAP1 ORF. Similarly, GA-Y021 encodes recombinant p2 that replaces ORF1 with mKate2, URA3 and leu2* without disturbing the native TP-DNAP2 ORF.
To precisely measure p1 and p2 per-base substitution mutation rates, several modifications were made to the small-scale protocol. First, 36 replicates were performed for reconfirmation of candidate TP-DNAP2 mutators, and 48 replicates for genomic and mutual orthogonality experiments. Titers were also determined for each strain after spot plating by pooling the residual volume from 4 replicates and plating dilutions on YPD. The expected number of LEU2 functional mutants (m) was determined by the Ma-Sandri-Sarkar maximum likelihood estimator (as calculated by the FALCOR tool and corrected for partial plating (Foster, 2006, Methods Enzymol, 409:195-213; Sarkar et al., 1992, Genetica, 85:173-179; Hall et al., 2009, Bioinformatics, 25:1564-1565). The mean mKate2 fluorescence was determined from 50,000 event counts on Attune™ NxT Flow Cytometer and converted to p2 copy number by using a calibration curve. To determine per-base substitution rates, the corrected m was normalized to the average cell titer, the p2 copy number, and the target size for functional leu2* reversion (2.33 bp). 95% confidence intervals were similarly scaled.
To test whether the replication mechanisms of p1 and p2 are mutually orthogonal in vivo, p1 and p2 mutation rates were measured in the presence of a panel of TP-DNAP1 and TP-DNAP2 variants with varying mutation rates. Changes in p1 or p2 mutation rate induced by TP-DNAP variants would therefore signal a degree of cross-replication between TP-DNAP1/p1 and TP-DNAP2/p2, if any. A panel of six polymerases was introduced on CEN6/ARS4 vectors into two separate base strains, AR-Y304 (p1 mutation rate reporter strain) and GA-Y021 (p2 mutation rate reporter strain), encoding mKate2, URA3, and leu2* on either p1 or p2, respectively. Included in this panel were TP-DNAP1^WT and two error-prone TP-DNAP1 variants found in previous screens: TP-DNAP1^1777K, L900S and TP-DNAP1^L477V, L640Y, I777K, W814N. Also included were TP-DNAP2^WT and the error-prone TP-DNAP2^S370Q and TP-DNAP2^Y424Q variants found in this work. In AR-Y304 and GA-Y021, both p1 and p2 still encode their native wt TP-DNAP's. Any contribution to replication by a third TP-DNAP encoded in trans is monitored by detecting changes in linear plasmid mutation rate. Importantly, these experiments afford each DNAP an opportunity to replicate its native plasmid and lose its attached TP, becoming “spent” and perhaps more likely to replicate its noncognate linear plasmid through DNAP exchange (Klassen and Meinhardt, 2007, Linear Protein-Primed Replicating Plasmids in Eukaryotic Microbes, in Microbial Linear Plasmids, pp 1 87-226. Springer, Berlin, Heidelberg). The presence of TP-DNAP1^WT or TP-DNAP2^WT in trans had no effect on their noncognate linear plasmids' mutation rate. […] Likewise, p1 mutation rate was unaltered in the presence of mutagenic TP-DNAP2^S370Q and TP-DNAP2^Y424Q, which increased p2 mutation rate by 29- and 16-fold, respectively (FIG. 9). Thus, TP-DNAP1 replicates p1 with at least 870-fold specificity over p2, while TP-DNAP2 targets p2 with at least 29-fold specificity over p1. The level of mutual orthogonality measured here is limited by the error-rates of DNAPs used, especially that of TP-DNAP2 variants.

p2-encoded leu2* = assay: p2 leu2* fluctuation tests in GA-Y021 (p2 mutation rate reporter strain); assay type: cell-based, S. cerevisiae
Method in brief: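 Yeast GA-Y021 carrying wt TP-DNAP2 plus variants in trans; replicate cultures grown 48 h at 30° C in pH 5.8 SC dropout, spot-plated on leucine-free medium, colonies counted after 5 days. m by p0 method (six replicates) or Ma-Sandri-Sarkar MLE (36–48 replicates), normalized to titer, p2 copy number (mKate2) and 2.33 bp target.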

B1: Y424Q: TP-DNAP2 variant (protein, listed as Kluyveromyces lactis)
chain: MNDELAFLNSQIDDYSDDIEFLRTEVFRINRYSKSIYSLMKNSSKEAIKETIEFNKYGQEIHSKIKEKEISLIEAIKLMEKKYKYLRSLNKTKDKSKKKKIHTKDIETLKTIYKTKADFDIRNFKNAETFTYENYSLLIPSEKELIDLIPEIEEDYSYYFYVSLTITGPTIFGGVTRKVPIIDTYGDINKDFYNKIKENITKVLDRVPFYEEKESEIICKKVLITLTVNKWESIDKWYKNVKSKSKKFKDFTLFLASDTSKNCVQQCVEYLGGKWNTNYSLEKMIPQQKIVTYIPLLMDIQYVQSMEDLISDFDEPNTDCKNIARLLKWNGHMGVITKIDKDVKINRIQRKRIIDVENKEVKEVFFDIESFSDETKHQIPYLICWSYLGELYYRTGKNCIKEFVEEILSYNVDIILYAWYGSGQDYQHVLPYMKSKCIKDKYIIKNNMITYGELYYENAIIYLKDPYLFILTSLDKASKAFNVINKGEFPHSIIHSWEDLNKILPNWVKIQKRMIEYKDDNKLNIYYKNIEIFENDRNYNTILENAIEYCKVDVLAMEKVWIKFKKLLEKNLNITVSVKTFTLSQLSMKIMESKLPKYVKLYVPTLEEYSKIRNAIYGGRVISKNGIYEENIVYADVVSLYPSAMKLLKHSYGKPKLVDYIDFEKHGIYRVTLLNKHDQEPKNYLNFVPRRINRKLTWEWFKIHEGWYHTYDLIIAKSEGFDIYCHEGFEYPEKDYIFNDFIDTLYSMKETHTACSCEEQPCPIRMVAKIALNGGGYGKFVQKPIDKEIYIVKRDVVAGECDKLQENENGEICIGKRLVKRPLFYNLDSENYDKMIIEKEDEPIYSTQCGISILSASRYRLYKLCKQFENIDIIYSDTDSIFVKQKSVDWELFKSKCGSELGQLDSTIDDTKNAIISKMYIGGAKMYAFEYLNNKNKLITKLHCKGVPNYMLSLNQFKYLMESPDNTIAYKFEIIRRKLVNVITKDLIKDIKQT
- change in p1 mutation rate by TP-DNAP2 (p1-encoded leu2*; AR-Y304, noncognate polymerase in trans): unaltered
- fold increase of p2 mutation rate (p2-encoded leu2*; GA-Y021, mutual orthogonality experiment, 48 replicates): 16 fold
- Per-base substitution rate pf p2 (p2-encoded leu2*; TP-DNAP2 variant in trans, wt TP-DNAP2 in cis, 36 replicates, (95% C.I.)): 77.5 (56.9-100) ×10^−10
- Fold increase (p2-encoded leu2*; p2 substitution rate over no variant in trans): 13.0
- fold increase of p2 substitution mutation rate (p2-encoded leu2*; reconfirmation, 36 replicates): ~13 fold

B2: w.t.: wild-type Kluyveromyces lactis DNA polymerase TP-DNAP1, SEQ ID NO:1 (protein, listed as Kluyveromyces lactis)
chain: MDYKDKALNDLRNVYADFDSLPLDFRQILIKDRATLLQKEDVEKKILERQEDAKKYAEYLKQSEIPERISLPNIKRHKGVSISFEETSEDMVLEPRPFIFDGLNIRCFRRETIFSLKNKILNMVKESSSFKNVSRQSVSFMYFKIFNKGKVIASTKSVNIYEDKIDERLEDLCNNFDDVLKKIIDVTYGYESLFVSETYSYVIFYAKSIYFPQPRCVNNWGNNIPNILTFDSFKLFTANKNNVSCIKQCSRFLWQKDFNTLEEMIEYKNGNICIVTPQLHINDVRDIKSFNDIRLYSESPIKTFSVIDNTITYLFYFKEHLGVIFNITKSRHDRRVTKFSPLSKFSDVKNITVCFDIESYFDPEKESNQVNIPFICCASIIYNKVIGNIVDFEGRDCVAQMIEYVVDICGELNISSVELIAHNGGGYDFHYILSSMYNPAAIKNILIRNNSFISFNFAHDGVKFSVKDSYSFLLCSLANASKAFLNEETFKKTDFPHHDLKTADDLYKVYKEWSSVNTEINHVVEKEKLLITSEHIVNFTKNDKSKTLIEWSKDYCRNDVLVLSKVWLEFKNAVEDIFNCELVDQTMTLAGLSYKLFQANMPFDVELRHPNKEDYFNMREALIGGRCISVNGIYKDVLCLDVKSLYPASMAFYDQPYGSFKRVSSRPKDELGIYYVRVTPNRNNKSNFFPIRSHNKITYNNFEESTYIAWYTNVDIDIGLSEGHNIEYIPFDSYGNIGYSWSKKGKIFEKYIKDVLYKLKIKYEKQNNKVKRNVIKIIMNSLWGKFAQKWVNFEYFIKSEDDIDFESEEAYKIWDTDFMLIKKIKESTYSSKPIQNGVFTLSWARYHMKSIWDAGAKEGAECIYSDTDSIFVHKEHFKKNAKFMLNGLKVPIIGSEVGQLELECEFDKLLCAGKKQYMGFYTYFQDGKPCIKEKKRFKGIPSNYIIPELYAHLLSGADKEAKIQFLKFRREWGSVKGYIENKTVKAT
- specificity for p1 over p2 (p1-encoded leu2*): at least 870 fold
- change in p2 mutation rate by TP-DNAP1 (p2-encoded leu2*; GA-Y021, noncognate polymerase in trans, mutual orthogonality experiment): no effect

Reference: patent US20230242902A1, “A HIGHLY ERROR-PRONE […] R[…] FOR TARGETED CONTINUOUS EVOLUTION IN VIVO” (The Regents of the University of California, priority 2017, published 2023)
